# Test results published in the Human Domainome abundance scans (Beltran et al. 2025).
# ± gives the uncertainty stated by the source.
# B1: Protein piccolo, residues 1058 to 1114; numbered along this chain, Q9Y6V0 (parent)
# chain: TCPLCKTELNIGSKDPPNFNTCTECKNQVCNLCGFNPTPHLTEIQEWLCLNCQTQRA
# Variants of: B1
# Assay: abundance fitness (aPCA) (normalised: wild type 0, dead -1); higher = more abundant; growth selection in yeast, the domain comes from the species named
# Conditions: Homo sapiens
row,Variant,abundance fitness
1,TCPLCKTELNIGSKDPPNFNTCTECCNQVCNLCGFNPTPHLTEIQEWLCLNCQTQRA,-0.026 ± 0.16
2,TCPLCKTELNIGSKDPPNFNTCTECKNQVCNLCGFNPTPHLTEIQELLCLNCQTQRA,0.056 ± 0.1
3,TCPLCKTELNIGSKDPPNFNTCTECKNQVCNLCGFNPTPHLTEIQEHLCLNCQTQRA,-0.135 ± 0.49
4,TCPLCKTELNIGSKDPPNFNTCTECKNQVCNLCGFNPTPLLTEIQEWLCLNCQTQRA,-0.02 ± 0.088
5,TCPLCKTELNIGSKDPPNFNTCTECKNQVCNLCGFNPTPTLTEIQEWLCLNCQTQRA,0.185 ± 0.14
6,TCPLCKTELNIGSKMPPNFNTCTECKNQVCNLCGFNPTPHLTEIQEWLCLNCQTQRA,-0.053 ± 0.13
7,TCPLCKTELNIGSKDPPNFNTHTECKNQVCNLCGFNPTPHLTEIQEWLCLNCQTQRA,-0.567 ± 0.15
8,TCPLCKTELNIGSKDPPNFNTPTECKNQVCNLCGFNPTPHLTEIQEWLCLNCQTQRA,-0.938 ± 0.17
9,TCPLCKTELNIGSKDPPNFNTFTECKNQVCNLCGFNPTPHLTEIQEWLCLNCQTQRA,-0.958 ± 0.18
10,TCPLCKTELNIGSKDPPNFNTCTECKNQVCNLCGLNPTPHLTEIQEWLCLNCQTQRA,0.175 ± 0.08
11,TCPLCKTELNIGSKDPPNFNTCTECKNQVCNLCGENPTPHLTEIQEWLCLNCQTQRA,0.275 ± 0.14
12,TCPLCKTELNIGSKDPPNFNTCTECKNQVCNLCGKNPTPHLTEIQEWLCLNCQTQRA,0.255 ± 0.15
13,TCPLCKTELNIGSKDPPNFNTCTECKNQSCNLCGFNPTPHLTEIQEWLCLNCQTQRA,-0.265 ± 0.068
14,TCPLCKTELNIGSKDPPNFNTCTECKNQLCNLCGFNPTPHLTEIQEWLCLNCQTQRA,-0.284 ± 0.072
15,TCPLCKTELNIGSKDPPNFNTCTECKNQCCNLCGFNPTPHLTEIQEWLCLNCQTQRA,0.028 ± 0.084
16,TCPLCKTELNIGSKDPPNFNTCTECKNQWCNLCGFNPTPHLTEIQEWLCLNCQTQRA,-0.131 ± 0.097
17,TCPLCKTELNIGSVDPPNFNTCTECKNQVCNLCGFNPTPHLTEIQEWLCLNCQTQRA,0.039 ± 0.091
18,TCPLCKTELNIGSKDPPQFNTCTECKNQVCNLCGFNPTPHLTEIQEWLCLNCQTQRA,-0.07 ± 0.12
19,TCPLCKTELNIGSKDPPVFNTCTECKNQVCNLCGFNPTPHLTEIQEWLCLNCQTQRA,-0.348 ± 0.096
20,TCPLCKTELNIGSKDPPRFNTCTECKNQVCNLCGFNPTPHLTEIQEWLCLNCQTQRA,-0.079 ± 0.1
21,TCPLCKTELNIGSKDPPEFNTCTECKNQVCNLCGFNPTPHLTEIQEWLCLNCQTQRA,-0.104 ± 0.15
22,TCPLCKTELNIGSKDPPKFNTCTECKNQVCNLCGFNPTPHLTEIQEWLCLNCQTQRA,-0.032 ± 0.17
23,TCPLCKTELNIGSKDPPNFNGCTECKNQVCNLCGFNPTPHLTEIQEWLCLNCQTQRA,-0.053 ± 0.099
24,TCPLCKTELNIGSKDPPNFNTCTECKNQVCNLCGFNWTPHLTEIQEWLCLNCQTQRA,-0.012 ± 0.11

row,Variant,abundance fitness
1,TCPLCKTELNIGSKDPPNFNTCTECKNQVCNLCGFNPTPHLTDIQEWLCLNCQTQRA,-0.096 ± 0.19
2,TCPLCKTELNIGSKDPPNFNTCTECKNQVCNLCGFNPTPHLTRIQEWLCLNCQTQRA,0.11 ± 0.13
3,TCPLCKTELNIGSKDPPNFNTCTECKNQVCNLCGFNPTPHLTTIQEWLCLNCQTQRA,-0.091 ± 0.18
4,TCPLCKTELNIGSKDPPNFNTCTQCKNQVCNLCGFNPTPHLTEIQEWLCLNCQTQRA,-0.135 ± 0.11
5,TCPLCKTELNIGSKDPPNFNTCTECKNQVCNLCGFNPTPHKTEIQEWLCLNCQTQRA,0.176 ± 0.17
6,TCPLCKTELNIGSKDPPNFNTCTECKNQVCNSCGFNPTPHLTEIQEWLCLNCQTQRA,0.128 ± 0.093
7,TCPLCKTELNIGSKDPPNFNTCTECKNQVCNPCGFNPTPHLTEIQEWLCLNCQTQRA,-0.134 ± 0.14
8,TCPLCKTELNIGSKDPPNFNTCTECKYQVCNLCGFNPTPHLTEIQEWLCLNCQTQRA,-0.452 ± 0.18
9,TCPLCKTELNIGSKDPPNFNTCTECKVQVCNLCGFNPTPHLTEIQEWLCLNCQTQRA,0.163 ± 0.09
10,TCPLCKTELNIGSKDPPNFNTCTECKMQVCNLCGFNPTPHLTEIQEWLCLNCQTQRA,-0.088 ± 0.16
11,TCPLCKTELNIGSKDPPNFNTCTECKNQVCNLCGFNPTPHLTEIQEWTCLNCQTQRA,-0.089 ± 0.14
12,TCPLCKTELNIGSKDPPNFNTCTECKNQVCNLCGFNPTPHLTEIQEWDCLNCQTQRA,-0.297 ± 0.18
13,TCPLCKTELNIGSKDPPNFNTCTECKNQVCNLCGFNPTPHLTEIQEWICLNCQTQRA,-0.105 ± 0.22
14,TCPLCKTELNIGSKDPPNFNTCTECKNQVYNLCGFNPTPHLTEIQEWLCLNCQTQRA,-1.03 ± 0.14
15,TCPLCKTELNIGSKDPPNFNTCTECKNQVQNLCGFNPTPHLTEIQEWLCLNCQTQRA,-0.619 ± 0.15
16,TCPLCKTELNIGSKDPPNFNTCTECKNQVCNLCIFNPTPHLTEIQEWLCLNCQTQRA,-0.885 ± 0.28
17,TGPLCKTELNIGSKDPPNFNTCTECKNQVCNLCGFNPTPHLTEIQEWLCLNCQTQRA,-0.877 ± 0.13
18,TKPLCKTELNIGSKDPPNFNTCTECKNQVCNLCGFNPTPHLTEIQEWLCLNCQTQRA,-0.831 ± 0.26
19,TFPLCKTELNIGSKDPPNFNTCTECKNQVCNLCGFNPTPHLTEIQEWLCLNCQTQRA,-1.11 ± 0.2
20,TMPLCKTELNIGSKDPPNFNTCTECKNQVCNLCGFNPTPHLTEIQEWLCLNCQTQRA,-0.983 ± 0.27
21,TCPLCKTERNIGSKDPPNFNTCTECKNQVCNLCGFNPTPHLTEIQEWLCLNCQTQRA,-0.156 ± 0.081
22,TCRLCKTELNIGSKDPPNFNTCTECKNQVCNLCGFNPTPHLTEIQEWLCLNCQTQRA,-0.175 ± 0.084
23,TCALCKTELNIGSKDPPNFNTCTECKNQVCNLCGFNPTPHLTEIQEWLCLNCQTQRA,-0.245 ± 0.11
